Measured values from paper PMC6131177.

Tests used:
[1] = biological target: T1, Bacteriorhodopsin (Halobacterium salinarum S9), P02945; experiment: circular dichroism in the visible range; bR in native purple membrane (PM); 700-400 nm, 20 °C; a biphasic signal marks the trimer; details: remark: other sources report otherwise
T1 chain: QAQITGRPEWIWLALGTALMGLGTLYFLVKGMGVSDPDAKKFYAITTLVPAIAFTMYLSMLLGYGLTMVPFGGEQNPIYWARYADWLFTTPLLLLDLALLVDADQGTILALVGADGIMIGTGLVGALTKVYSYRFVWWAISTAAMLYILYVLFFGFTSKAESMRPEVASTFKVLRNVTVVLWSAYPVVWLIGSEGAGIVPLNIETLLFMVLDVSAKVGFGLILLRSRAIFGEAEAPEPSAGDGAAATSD

[2] = biological target: T1, Bacteriorhodopsin (Halobacterium …); experiment: circular dichroism in the visible range; bR in PMND (cE3D1 nanodisc assembled directly from PM), SEC-purified early fractions 1 to 6; 700-400 nm, 20 °C; a biphasic signal marks the trimer; details: remark: other sources report otherwise

stoichiometry N [1]: 3
stoichiometry N [2]: 3
B1: Bacteriorhodopsin, P02945 14-262 (natural protein)
chain: QAQITGRPEWIWLALGTALMGLGTLYFLVKGMGVSDPDAKKFYAITTLVPAIAFTMYLSMLLGYGLTMVPFGGEQNPIYWARYADWLFTTPLLLLDLALLVDADQGTILALVGADGIMIGTGLVGALTKVYSYRFVWWAISTAAMLYILYVLFFGFTSKAESMRPEVASTFKVLRNVTVVLWSAYPVVWLIGSEGAGIVPLNIETLLFMVLDVSAKVGFGLILLRSRAIFGEAEAPEPSAGDGAAATSD
modifications: here or on the partner: retinal Schiff base (residue not given); retinal Schiff base (residue not given)
